Assay results reported in patent US8524227B2, “Anti-IL-TIF antibodies” (ZymoGenetics, Inc., priority 2002, dated 2013).

Tests used:
BaF3/CRF2-4 cells = assay: Alamar Blue proliferation assay, BaF3/CRF2-4 cells; format: cell-based, murine
BaF3 wild type cells = assay: Alamar Blue proliferation assay, BaF3 wild type cells; format: cell-based, murine
[1] = target: T1, CRF2-4/zcytor11 heterodimeric receptor (Homo sapiens, UniProt Q08334+Q8N6P7, R518G); assay: Alamar Blue proliferation assay, BaF3/CRF2-4/zcytor11 cells; format: cell-based; conditions: 50 ng/ml IL-TIF-CEE
T1 construct: BaF3 cells expressing the full-length CFR2-4 receptor were constructed; expressed in transfected cells
T1 sequence (Q8N6P7 16-574 R518G): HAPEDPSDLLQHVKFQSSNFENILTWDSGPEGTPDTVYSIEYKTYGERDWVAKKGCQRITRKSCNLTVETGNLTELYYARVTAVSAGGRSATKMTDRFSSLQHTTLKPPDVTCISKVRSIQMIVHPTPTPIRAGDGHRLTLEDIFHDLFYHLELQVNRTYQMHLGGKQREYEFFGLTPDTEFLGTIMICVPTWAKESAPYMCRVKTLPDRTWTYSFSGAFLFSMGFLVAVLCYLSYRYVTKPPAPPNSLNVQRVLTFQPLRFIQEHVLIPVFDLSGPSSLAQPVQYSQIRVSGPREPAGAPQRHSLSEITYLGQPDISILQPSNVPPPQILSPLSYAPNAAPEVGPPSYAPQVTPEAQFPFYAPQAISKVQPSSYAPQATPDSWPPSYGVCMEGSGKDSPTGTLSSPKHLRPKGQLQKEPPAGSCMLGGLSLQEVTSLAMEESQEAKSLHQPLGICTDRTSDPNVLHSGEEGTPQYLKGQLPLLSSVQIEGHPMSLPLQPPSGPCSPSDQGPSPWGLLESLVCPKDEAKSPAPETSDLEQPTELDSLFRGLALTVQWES
T1 sequence (Q08334 20-325): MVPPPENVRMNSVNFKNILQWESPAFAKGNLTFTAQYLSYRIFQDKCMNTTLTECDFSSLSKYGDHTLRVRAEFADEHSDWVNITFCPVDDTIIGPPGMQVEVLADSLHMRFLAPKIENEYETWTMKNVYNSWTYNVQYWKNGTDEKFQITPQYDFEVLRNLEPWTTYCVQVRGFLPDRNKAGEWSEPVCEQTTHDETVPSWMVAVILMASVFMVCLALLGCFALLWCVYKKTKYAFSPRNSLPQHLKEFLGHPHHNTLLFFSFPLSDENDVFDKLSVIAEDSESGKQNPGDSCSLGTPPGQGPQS
Description: BaF3/CRF2-4/zcytor11 cells were spun down and washed in the complete media, described in Example 21A above, but without mIL-3 (hereinafter referred to as “mIL-3 free media”). The cells were spun and washed 3 times to ensure the removal of the mIL-3 Cells were then counted in a hemacytometer. Cells were plated in a 96-well format at 5000 cells per well in a volume of 100 μl per well using the mIL-3 free media.
Proliferation of the BaF3/CRF2-4/zcytor11 cells was assessed using IL-TIF-CEE protein diluted with mIL-3 free media to 50, 10, 2, 1, 0.5, 0.25, 0.13, 0.06 ng/ml concentrations. 100 μl of the diluted protein was added to the BaF3/CRF2-4/zcytor11 cells. The total assay volume is 200 μl. […] Alamar Blue gives a fluourometric readout based on number of live cells, and is thus a direct measurement of cell proliferation in comparison to a negative control. […] Plates were read on the Finax™ plate reader (Molecular Devices Sunnyvale, Calif.) using the SoftMax™ Pro program, at wavelengths 544 (Excitation) and 590 (Emmission). […] The response, as measured, was approximately 15-fold over background at the high end of 50 ng/ml down to a 2-fold induction at the low end of 0.06 ng/ml. […]
IL-TIF protein (SEQ ID NO:3) was diluted to 200 pg/ml in mIL-3 free media. […] Plates were read on the Wallac Victor 2 1420 Multilabel Counter (Wallac, Turku, Finland) at wavelengths 530 (Excitation) and 590 (Emmssion). […]

B1: IL-TIF-CEE: IL-TIF polypeptide containing C-terminal GluGlu (EE) tag, purified from BHK 570 cells (protein)
chain: APISSHCRLDKSNFQQPYITNRTFMLAKEASLADNNTDVRLIGEKLFHGVSMSERCYLMKQVLNFTLEEVLFPQSDRFQPYMQEVVPFLARLSNRLSTCHIEGDDLHIQRNVQKLKDTVKKLGESGEIKAIGELDLLFMSLRNACIEYMPME
proliferation in response to IL-TIF-CEE (BaF3/CRF2-4 cells): did not proliferate
proliferation in response to IL-TIF-CEE (BaF3 wild type cells): did not proliferate
proliferative response over background [1]: approximately 15 fold
